{
  "source": "patent US7687474B2",
  "about": "“Nitroreductase enzymes” (The Board of Trustees of the Leland Stanford Junior …, priority 2005, dated 2010)",
  "molecules": {"B1": {"name": "Y6: evolved YieF enzyme with four substitutions: V120A, Y128N, T160N and Q175L (protein, UniProt P0AGE6 1-188, looked up, variant V120A Y128N T160N Q175L)", "Quinone reductase": "MSEKLQVVTLLGSLRKGSFNGMVARTLPKIAPASMEVNALPSIADIPLYDADVQQEEGFPATVEALAEQIRQADGVVIVTPEYNYSVPGGLKNAIDWLSRLPDQPLAGKPVLIQTSSMGAIGGARCQNHLRQILVFLDAMVMNKPEFMGGVIQNKVDPQNGEVIDQGTLDHLTGLLTAFGEFIQRVKI"}, "B2": {"name": "YieF: native E. coli NAD(P)H oxidoreductase ChrR (formerly called YieF), SEQ ID NO:1 (protein)", "chain": "MSEKLQVVTLLGSLRKGSFNGMVARTLPKIAPASMEVNALPSIADIPLYDADVQQEDGFPATVEALAEQIRQADGVVIVTPEYNYSVPGGLKNAIDWLSRLPDQPLAGKPVLIQTSSMGVIGGARCQYHLRQILVFLDAMVMNKPEFMGGVIQNKVDPQTGEVIDQSTLDHLTGQLTAFGEFIQRVKI", "modifications": "E. coli"}},
  "key": {"[1]": {"test_system": "SL 7838", "assay": "Effect of prodrugs on the delivery strain SL 7838", "settings": "CB 1954 15 μM", "quoted_text": "We tested the S. typhimurium strain 7838 (SL 7838), transformed with different plasmids (see Methods), as a potential vehicle to attain this objective. IPTG was used to induce the wild type and mutant enzymes encoded by the plasmids. In these experiments, the prodrugs were activated by bacteria producing the specified enzymes instead of, as in previous experiments, the added enzymes."}, "[2]": {"molecular_target": "T1, ChrR (Escherichia coli, UniProt P0AGE6, E57D/G167S)", "T1 construct": "made in house; host or cells: E. coli BL21 (DE3)", "assay_type": "biochemical, E. coli", "settings": "CNOB versus CB 1954", "source_text": "To evaluate if CNOB competes with CB 1954 on the active site of the enzyme we performed a competition assay."}, "[3]": {"test_system": "HeLa cells", "assay": "Confocal imaging of CNOB reduction in HeLa cells infected with SL 7838 expressing GFP and Y6", "assay_type": "cell-based, Human", "settings": "HeLa cells infected with SL 7838 expressing GFP and Y6 (FIG. 8)"}, "[4]": {"test_system": "HeLa cells", "settings": "for HeLa cell killing by CNOB: CNOB as prodrug, pure protein (FIG. 7)"}, "[5]": {"test_system": "HeLa cells", "assay": "Viability test: prodrug activated by purified enzyme, loss of HeLa cell viability", "procedure": "Viability tests. As mentioned in the Results section, these involved two incubation periods, prodrug activation, followed by assay of the toxic moiety generated by determining the loss of HeLa cell viability. […] Following prodrug reduction at 37° C., 0.5 ml of fresh HeLa cells (˜0.5-1×10^5) were added. The duration of the prodrug reduction was 30 min in all experiments; the HeLa cell exposure periods were as specified in the text. After the latter incubation, 20 μl of the color reagent, CellTiter 96®AqueousOne (PROMEGA Inc) were added to 100 μl aliquots of the reaction mixture. Following an additional 1 h of incubation, A490 was measured in a BioTek microplate S330 reader.\nProdrug activation by wild type YieF and the evolved enzymes. […] The experiments involved two incubation periods. In the first period, the enzyme and the drug were incubated to generate the toxic species; in the second period, which was initiated with the addition of HeLa cells to the reaction mixture, the extent of drug activation was inferred from the loss of HeLa cell viability. In the experiments described in this section, both the prodrug reduction and the subsequent cell exposure periods were of 30 min duration, and the enzyme and drug concentrations were 50 μg ml^−1 and 15 μM, respectively. […]"}, "[6]": {"test_system": "HeLa cells", "assay": "Cell survival assay using SL 7838 to deliver the wild type or evolved enzymes", "assay_type": "cell-based, Human", "settings": "for amount of bacteria required / killing of surface-adhered HeLa-luc cells: SL 7838 expressing the enzyme, 15 μM CB 1954, 1 h + 3 h incubation, luciferase read-out (FIG. 6)", "quoted_text": "Cell survival assay, using SL 7838 to deliver the wild type or evolved enzymes. SL 7838 contains deletions in the aroA and sopE genes. This strain is non-pathogenic in immunocompetent mice, but can colonize and persist in solid tumors. The strain was transformed with appropriate plasmids to express the yief (now chrR), nfsA or theY6 (now chrR6)-encoding yieFY6 gene. It was also transformed with a vector containing the lux operon, expressing the bacterial luciferase (product of the luxR gene) and its substrate. HeLa cells stably transfected to express firefly luciferase were added to black walled 96-well plates at a density of 1000 cells well^−1. Once the cells had attached, a dilution series of non-transformed SL 7838 or SL 7838 transformed with plasmids expressing the appropriate genes (Table 1) was added to the plates; 0.5 mM IPTG was added to induce the genes on the plasmids. After 1 h incubation, 15 μM CB 1954 was added. Light output per well produced from bacterial luciferase (no additional substrate added) or bacterial and firefly luciferase (following addition of 2 μl of 30 mg ml^−1 luciferin per well) was measured on an IVIS50 system (Xenogen Corp.). Percentage HeLa cell survival was determined by calculating firefly luciferase expression (total light output—bacterial light output) relative to wells containing unchallenged HeLa cells or HeLa cells treated with 70% ethanol. All experiments were performed at least in triplicate; error bars in the figures are SEM.\nSL 7838 as a delivery vehicle to tumor cells. […] We tested the S. typhimurium strain 7838 (SL 7838), transformed with different plasmids (see Methods), as a potential vehicle to attain this objective. IPTG was used to induce the wild type and mutant enzymes encoded by the plasmids. […]\nFurther analysis was performed to test the efficiency of SL 7838 to deliver the enzymes to surface-adhered HeLa cells. […] After a further 3 h incubation period the firefly luciferase substrate (luciferin) was added, and the light output was used to quantify HeLa cell survival (FIG. 6)."}},
  "data": [
    {"molecule": "NC(=O)c1cc(N2CC2)c([N+](=O)[O-])cc1[N+](=O)[O-]", "note": "[CB 1954, 5-aziridinyl-2,4-dinitrobenzamide]", "values": [
      {"measurement": "effect on replication of SL7838", "setting": "[1]", "result": "did not inhibit replication"}
    ]},
    {"molecule": "O=c1c(Cl)c2oc3cc([N+](=O)[O-])ccc3nc-2c2ccccc12", "note": "[CNOB]", "values": [
      {"measurement": "mode of inhibition in competition assay", "setting": "[2]", "result": "competitive inhibitors of each other"},
      {"measurement": "bystander effect (red fluorescence in uninfected cells)", "setting": "[3]", "result": "effective bystander effect"},
      {"measurement": "prodrug efficiency in in vitro cytotoxicity assays", "setting": "[4]; compared with CB1954", "result": "same efficiency as CB1954"}
    ]},
    {"molecule": "B1", "values": [
      {"measurement": "greater reduction in HeLa cells survival compared to the controls", "setting": "[5]; 15 μM MMC or CB 1954, 50 μg ml^−1 enzyme (FIG. 1)", "result": "~90", "unit": "%"},
      {"measurement": "activity for prodrug reduction relative to wild type", "setting": "[5]; MMC or CB 1954 (FIG. 1)", "result": "improved activity for prodrug reduction"},
      {"measurement": "HeLa cell killing by CNOB", "setting": "[4]", "result": "more active"},
      {"measurement": "amount of bacteria required / killing of surface-adhered HeLa-luc cells", "setting": "[6]", "result": "at least an order of magnitude less bacteria"},
      {"measurement": "reduction in survival of HeLa cells", "setting": "[6]; in the presence of CB 1954 (15 μM), enzyme expressed by SL 7838 bacteria, IPTG induced (FIG. 5)", "result": 90, "unit": "%"}
    ]},
    {"molecule": "B2", "values": [
      {"measurement": "HeLa cell killing by CNOB", "setting": "[4]", "result": "significant increase of cell killing compared to the control"},
      {"measurement": "amount of bacteria required / killing of surface-adhered HeLa-luc cells", "setting": "[6]", "result": "scarcely greater than seen in controls"}
    ]}
  ]
}
